Results on three variants are retold here after publication PMC4741384 (2016).

Sequences and labels used below:
B1: full-length mCherry-lacR-MDC1 [human] / FN-TNKS1 (flag tag and NLS signal, pCDNA 3.1) [human] (parent complex)
chain 1: MEDTQAIDWDVEEEEETEQSSESLRCNVEPVGRLHIFSGAHGPEKDFPLHLGKNVVGRMPDCSVALPFPSISKQHAEIEILAWDKAPILRDCGSLNGTQILRPPKVLSPGVSHRLRDQELILFADLLCQYHRLDVSLPFVSRGPLTVEETPRVQGETQPQRLLLAEDSEEEVDFLSERRMVKKSRTTSSSVIVPESDEEGHSPVLGGLGPPFAFNLNSDTDVEEGQQPATEEASSAARRGATVEAKQSEAEVVTEIQLEKDQPLVKERDNDTKVKRGAGNGVVPAGVILERSQPPGEDSDTDVDDDSRPPGRPAEVHLERAQPFGFIDSDTDAEEERIPATPVVIPMKKRKIFHGVGTRGPGAPGLAHLQESQAGSDTDVEEGKAPQAVPLEKSQASMVINSDTDDEEEVSAALTLAHLKESQPAIWNRDAEEDMPQRVVLLQRSQTTTERDSDTDVEEEELPVENREAVLKDHTKIRALVRAHSEKDQPPFGDSDDSVEADKSSPGIHLERSQASTTVDINTQVEKEVPPGSAIIHIKKHQVSVEGTNQTDVKAVGGPAKLLVVSLEEAWPLHGDCETDAEEGTSLTASVVADVRKSQLPAEGDAGAEWAAAVLKQERAHEVGAQGGPPVAQVEQDLPISRENLTDLVVDTDTLGESTQPQREGAQVPTGREREQHVGGTKDSEDNYGDSEDLDLQATQCFLENQGLEAVQSMEDEPTQAFMLTPPQELGPSHCSFQTTGTLDEPWEVLATQPFCLRESEDSETQPFDTHLEAYGPCLSPPRAIPGDQHPESPVHTEPMGIQGRGRQTVDKVMGIPKETAERVGPERGPLERETEKLLPERQTDVTGEEELTKGKQDREQKQLLARDTQRQESDKNGESASPERDRESLKVEIETSEEIQEKQVQKQTLPSKAFEREVERPVANRECDPAELEEKVPKVILERDTQRGEPEGGSQDQKGQASSPTPEPGVGAGDLPGPTSAPVPSGSQSGGRGSPVSPRRHQKGLLNCKMPPAEKASRIRAAEKVSRGDQESPDACLPPTVPEAPAPPQKPLNSQSQKHLAPPPLLSPLLPSIKPTVRKTRQDGSQEAPEAPLSSELEPFHPKPKIRTRKSSRMTPFPATSAAPEPHPSTSTAQPVTPKPTSQATRSRTNRSSVKTPEPVVPTAPELQPSTSTDQPVTSEPTSQVTRGRKSRSSVKTPETVVPTALELQPSTSTDRPVTSEPTSQATRGRKNRSSVKTPEPVVPTAPELQPSTSTDQPVTSEPTYQATRGRKNRSSVKTPEPVVPTAPELRPSTSTDRPVTPKPTSRTTRSRTNMSSVKTPETVVPTAPELQISTSTDQPVTPKPTSRTTRSRTNMSSVKNPESTVPIAPELPPSTSTEQPVTPEPTSRATRGRKNRSSGKTPETLVPTAPKLEPSTSTDQPVTPEPTSQATRGRTNRSSVKTPETVVPTAPELQPSTSTDQPVTPEPTSQATRGRTDRSSVKTPETVVPTAPELQASASTDQPVTSEPTSRTTRGRKNRSSVKTPETVVPAAPELQPSTSTDQPVTPEPTSRATRGRTNRSSVKTPESIVPIAPELQPSTSRNQLVTPEPTSRATRCRTNRSSVKTPEPVVPTAPEPHPTTSTDQPVTPKLTSRATRRKTNRSSVKTPKPVEPAASDLEPFTPTDQSVTPEAIAQGGQSKTLRSSTVRAMPVPTTPEFQSPVTTDQPISPEPITQPSCIKRQRAAGNPGSLAAPIDHKPCSAPLEPKSQASRNQRWGAVRAAESLTAIPEPASPQLLETPIHASQIQKVEPAGRSRFTPELQPKASQSRKRSLATMDSPPHQKQPQRGEVSQKTVIIKEEEEDTAEKPGKEEDVVTPKPGKRKRDQAEEEPNRIPSRSLRRTKLNQESTAPKVLFTGVVDARGERAVLALGGSLAGSAAEASHLVTDRIRRTVKFLCALGRGIPILSLDWLHQSRKAGFFLPPDEYVVTDPEQEKNFGFSLQDALSRARERRLLEGYEIYVTPGVQPPPPQMGEIISCCGGTYLPSMPRSYKPQRVVITCPQDFPHCSIPLRVGLPLLSPEFLLTGVLKQEAKPEAFVLSPLEMSST
chain 2: MAASRRSQHHHHHHQQQLQPAPGASAPPPPPPPPLSPGLAPGTTPASPTASGLAPFASPRHGLALPEGDGSRDPPDRPRSPDPVDGTSCCSTTSTICTVAAAPVVPAVSTSSAAGVAPNPAGSGSNNSPSSSSSPTSSSSSSPSSPGSSLAESPEAAGVSSTAPLGPGAAGPGTGVPAVSGALRELLEACRNGDVSRVKRLVDAANVNAKDMAGRKSSPLHFAAGFGRKDVVEHLLQMGANVHARDDGGLIPLHNACSFGHAEVVSLLLCQGADPNARDNWNYTPLHEAAIKGKIDVCIVLLQHGADPNIRNTDGKSALDLADPSAKAVLTGEYKKDELLEAARSGNEEKLMALLTPLNVNCHASDGRKSTPLHLAAGYNRVRIVQLLLQHGADVHAKDKGGLVPLHNACSYGHYEVTELLLKHGACVNAMDLWQFTPLHEAASKNRVEVCSLLLSHGADPTLVNCHGKSAVDMAPTPELRERLTYEFKGHSLLQAAREADLAKVKKTLALEIINFKQPQSHETALHCAVASLHPKRKQVTELLLRKGANVNEKNKDFMTPLHVAAERAHNDVMEVLHKHGAKMNALDTLGQTALHRAALAGHLQTCRLLLSYGSDPSIISLQGFTAAQMGNEAVQQILSESTPIRTSDVDYRLLEASKAGDLETVKQLCSSQNVNCRDLEGRHSTPLHFAAGYNRVSVVEYLLHHGADVHAKDKGGLVPLHNACSYGHYEVAELLVRHGASVNVADLWKFTPLHEAAAKGKYEICKLLLKHGADPTKKNRDGNTPLDLVKEGDTDIQDLLRGDAALLDAAKKGCLARVQKLCTPENINCRDTQGRNSTPLHLAAGYNNLEVAEYLLEHGADVNAQDKGGLIPLHNAASYGHVDIAALLIKYNTCVNATDKWAFTPLHEAAQKGRTQLCALLLAHGADPTMKNQEGQTPLDLATADDIRALLIDAMPPEALPTCFKPQATVVSASLISPASTPSCLSAASSIDNLTGPLAELAVGGASNAGDGAAGTERKEGEVAGLDMNISQFLKSLGLEHLRDIFETEQITLDVLADMGHEELKEIGINAYGHRHKLIKGVERLLGGQQGTNPYLTFHCVNQGTILLDLAPEDKEYQSVEEEMQSTIREHRDGGNAGGIFNRYNVIRIQKVVNKKLRERFCHRQKEVSEENHNHHNERMLFHGSPFINAIIHKGFDERHAYIGGMFGAGIYFAENSSKSNQYVYGIGGGTGCPTHKDRSCYICHRQMLFCRVTLGKSFLQFSTMKMAHAPPGHHSVIGRPSVNGLAYAEYVIYRGEQAYPEYLITYQIMKPEAPSQTATAAEQKT

In the test the parent is B1. Description: lacO-array tethering colocalization (immunofluorescence) in U2OS17 cells; N = 100 cells in each experiment, three independent experiments; read off a plot.
As for chain 1 P951A, chain 1 E952A, chain 1 G953A, the screen value was roughly 30%.

In the case of chain 1 P951A, chain 1 E952A, chain 1 G953A, chain 1 L1996A, chain 1 E1997A, chain 1 G1998A, the screen value is roughly 3.7%.

On to chain 1 L1996A, chain 1 E1997A, chain 1 G1998A, for which the screen value is roughly 27%.
